Drawing on PMC9308760 (Molecular cell, 2022), this text covers binding result and Kd for four molecules.

The data set “negative-stain EM” concerns the molecule itself. The data set is described as follows: negative-stain EM.
The next data set concerns the target T1, TnsB Δ245-251 (Escherichia coli (Tn7), UniProt P13989 1-702, del245-251).
T1 sequence: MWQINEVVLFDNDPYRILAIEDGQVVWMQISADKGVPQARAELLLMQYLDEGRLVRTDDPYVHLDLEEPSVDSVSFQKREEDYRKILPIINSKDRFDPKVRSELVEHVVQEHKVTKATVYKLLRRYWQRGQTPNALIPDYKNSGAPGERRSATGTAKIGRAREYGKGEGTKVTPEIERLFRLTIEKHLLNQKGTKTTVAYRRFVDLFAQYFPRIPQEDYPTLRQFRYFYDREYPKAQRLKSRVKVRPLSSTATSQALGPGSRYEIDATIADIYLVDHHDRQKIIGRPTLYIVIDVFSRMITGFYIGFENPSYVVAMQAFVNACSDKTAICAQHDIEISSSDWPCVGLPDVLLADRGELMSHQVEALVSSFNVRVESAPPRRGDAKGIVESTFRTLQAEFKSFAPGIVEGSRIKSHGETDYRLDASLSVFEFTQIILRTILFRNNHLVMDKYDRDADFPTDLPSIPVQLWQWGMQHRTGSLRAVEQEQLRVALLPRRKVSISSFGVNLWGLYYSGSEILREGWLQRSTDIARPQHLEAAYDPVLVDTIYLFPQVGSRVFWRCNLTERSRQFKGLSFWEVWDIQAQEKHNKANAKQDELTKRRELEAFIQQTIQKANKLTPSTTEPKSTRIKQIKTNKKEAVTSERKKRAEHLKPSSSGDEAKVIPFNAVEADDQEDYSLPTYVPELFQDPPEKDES
The data set is described as follows: EMSA. (In general: A gel shift assay detects complexes by their altered migration in electrophoresis.)

The data set “cryo-EM structure” concerns the molecule itself. The experiment in a line: cryo-EM structure.
The target of another data set is T2, TnsB wild type (Escherichia coli (Tn7), UniProt P13989 1-702).
T2 sequence: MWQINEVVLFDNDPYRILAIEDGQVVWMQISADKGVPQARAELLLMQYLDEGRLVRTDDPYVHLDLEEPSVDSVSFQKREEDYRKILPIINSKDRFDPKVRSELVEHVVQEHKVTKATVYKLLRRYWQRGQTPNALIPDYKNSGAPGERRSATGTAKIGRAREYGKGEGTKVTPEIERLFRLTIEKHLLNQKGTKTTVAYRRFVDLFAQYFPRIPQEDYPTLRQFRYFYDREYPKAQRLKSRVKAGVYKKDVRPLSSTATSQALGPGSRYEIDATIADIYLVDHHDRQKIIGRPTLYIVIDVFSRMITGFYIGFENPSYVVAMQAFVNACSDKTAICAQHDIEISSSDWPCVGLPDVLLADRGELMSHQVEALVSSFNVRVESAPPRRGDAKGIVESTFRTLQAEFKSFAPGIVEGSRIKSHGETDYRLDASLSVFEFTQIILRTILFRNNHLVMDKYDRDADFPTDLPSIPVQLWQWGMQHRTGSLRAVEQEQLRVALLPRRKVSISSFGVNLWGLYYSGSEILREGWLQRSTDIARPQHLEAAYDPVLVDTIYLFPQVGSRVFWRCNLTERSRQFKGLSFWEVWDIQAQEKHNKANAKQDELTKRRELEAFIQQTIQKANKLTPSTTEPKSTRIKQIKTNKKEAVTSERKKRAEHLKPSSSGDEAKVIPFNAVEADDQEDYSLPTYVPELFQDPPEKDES
The data set is described as follows: EMSA.

B1: TnsB variant with a shorter DBD2-CD linker (Δ245–251) (enzyme, E. coli)
chain: T1 sequence
On to B1, for which the binding result in the data set “negative-stain EM” is reported as “binds”.

B2: 3BS (dsDNA)
DNA 1: CTAGTTTAAGACTTTATTGTCATAGTTTAGATCTATTTTGTTCAGTTTAAGACTTTATTGTCCGCCCACA
DNA 2: TGTGGGCGGACAATAAAGTCTTAAACTGAACAAAATAGATCTAAACTATGACAATAAAGTCTTAAACTAG
With B2, the binding result in the data set with TnsB Δ245-251 is “binds”.

B3: Tn7 transposase TnsB (E. coli), wild type (enzyme, UniProt P13989 1-702, looked up)
chain: T2 sequence
B3: the binding result in the data set “cryo-EM structure” was “binds”.

B4: 2BSL (dsDNA)
DNA 1: CCCAGTTCCCATCTATTTTGTCACTCTTCCCTAAATAATCCTTAAAAACTCCATTTCCACCCCTCCCAGTTCCCAACTATTTTGTCCGCCCACA
DNA 2: TGTGGGCGGACAAAATAGTTGGGAACTGGGAGGGGTGGAAATGGAGTTTTTAAGGATTATTTAGGGAAGAGTGACAAAATAGATGGGAACTGGG
For the molecule B4, in the data set with TnsB wild type, the dissociation constant Kd (in general, the free concentration of one partner at which half of the binding sites on the other are occupied at equilibrium, for simple one-to-one binding) came to 85 ± 4 nM.
